Values belong to the substance of their own block, whether it stands above or below them.
Tests used:
[1] = target: platelet-derived growth factor-BB (PDGF-BB) (human) (UniProt P01127); test: equilibrium binding to FN adsorbed to a surface or coupled to agarose beads
[2] = target: transforming growth factor-β1 (TGF-β1) (human) (UniProt P01137); test: as above
[3] = target: platelet-derived growth factor-BB (PDGF-BB) (human) (UniProt P01127); test: radiolabeled GF binding to intact FN, non linear regression; radiolabeled GF, intact FN
[4] = target: transforming growth factor-β1 (TGF-β1) (human) (UniProt P01137); test: as above
[5] = target: platelet-derived growth factor-BB (PDGF-BB) (human) (UniProt P01127); test: equilibrium binding
[6] = target: platelet-derived growth factor-BB (PDGF-BB) (human) (UniProt P01127); test: surface plasmon resonance, kinetic
Target sequence in this assay (P01127 82-190 limits assumed): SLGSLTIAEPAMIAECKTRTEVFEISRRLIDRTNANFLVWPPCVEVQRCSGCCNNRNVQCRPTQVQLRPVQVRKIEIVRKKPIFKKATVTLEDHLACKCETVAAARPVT

[7] = target: transforming growth factor-β1 (TGF-β1) (human) (UniProt P01137); test: equilibrium binding; equilibrium binding
Target sequence in this assay (P01137 279-390 limits assumed): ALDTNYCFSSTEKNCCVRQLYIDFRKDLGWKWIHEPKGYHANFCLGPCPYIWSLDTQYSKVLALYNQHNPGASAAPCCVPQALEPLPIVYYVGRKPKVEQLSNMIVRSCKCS

[8] = target: transforming growth factor-β1 (TGF-β1) (human) (UniProt P01137); test: surface plasmon resonance, kinetic; kinetic, plasmon surface resonance
Target sequence in this assay (P01137 279-390 limits assumed): as above

[9] = target: platelet-derived growth factor-BB (PDGF-BB) (human) (UniProt P01127); test: method not restated in the sentence
Target sequence in this assay (P01127 82-190 limits assumed): as the sequence (P01127 82-190 limits assumed) above

[10] = target: transforming growth factor-β1 (TGF-β1) (human) (UniProt P01137); test: method not restated in the sentence
Target sequence in this assay (P01137 279-390 limits assumed): as the sequence (P01137 279-390 limits assumed) above

[11] = target: vascular endothelial growth factor A (VEGF-A) (human) (UniProt P15692); test: method not restated in the sentence
Sequence of vascular endothelial growth factor A (VEGF-A) (human) (P15692 other isoform, or with tags, fused parts or gaps limits assumed): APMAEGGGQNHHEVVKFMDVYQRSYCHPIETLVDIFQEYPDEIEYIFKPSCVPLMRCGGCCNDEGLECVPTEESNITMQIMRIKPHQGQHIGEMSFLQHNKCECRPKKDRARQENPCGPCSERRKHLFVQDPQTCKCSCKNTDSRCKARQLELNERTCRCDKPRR

[12] = target: transforming growth factor-β1 (TGF-β1) (human) (UniProt P01137); test: equilibrium or kinetic binding, not said which
[13] = target: platelet-derived growth factor-BB (PDGF-BB) (human) (UniProt P01127); test: plasmon resonance modulation; plasmon resonance
Target sequence in this assay (P01127 82-190 limits assumed): as the sequence (P01127 82-190 limits assumed) above

[14] = target: transforming growth factor-β1 (TGF-β1) (human) (UniProt P01137); test: plasmon resonance modulation; plasmon resonance
Target sequence in this assay (P01137 279-390 limits assumed): as the sequence (P01137 279-390 limits assumed) above

[15] = target: vascular endothelial growth factor A (VEGF-A) (human) (UniProt P15692); test: plasmon resonance modulation; plasmon resonance
[16] = target: platelet-derived growth factor-BB (PDGF-BB) (human) (UniProt P01127); test: method not restated in the sentence (paragraph: plasmon resonance modulation)
Target sequence in this assay (P01127 82-190 limits assumed): as the sequence (P01127 82-190 limits assumed) above

[17] = target: transforming growth factor-β1 (TGF-β1) (human) (UniProt P01137); test: as above
Target sequence in this assay (P01137 279-390 limits assumed): as the sequence (P01137 279-390 limits assumed) above

[18] = target: platelet-derived growth factor-BB (PDGF-BB) (human) (UniProt P01127); test: surface plasmon resonance

Sequence of IIICS, variably-spliced domain of fibronectin (P02751 other isoform, or with tags, fused parts or gaps limits assumed): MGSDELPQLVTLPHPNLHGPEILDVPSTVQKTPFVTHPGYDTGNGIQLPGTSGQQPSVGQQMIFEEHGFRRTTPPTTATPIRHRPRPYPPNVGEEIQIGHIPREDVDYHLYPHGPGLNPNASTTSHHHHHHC
Sequence of FNIII12-15 (H), heparinII-binding domain of fibronectin (P02751 other isoform, or with tags, fused parts or gaps limits assumed): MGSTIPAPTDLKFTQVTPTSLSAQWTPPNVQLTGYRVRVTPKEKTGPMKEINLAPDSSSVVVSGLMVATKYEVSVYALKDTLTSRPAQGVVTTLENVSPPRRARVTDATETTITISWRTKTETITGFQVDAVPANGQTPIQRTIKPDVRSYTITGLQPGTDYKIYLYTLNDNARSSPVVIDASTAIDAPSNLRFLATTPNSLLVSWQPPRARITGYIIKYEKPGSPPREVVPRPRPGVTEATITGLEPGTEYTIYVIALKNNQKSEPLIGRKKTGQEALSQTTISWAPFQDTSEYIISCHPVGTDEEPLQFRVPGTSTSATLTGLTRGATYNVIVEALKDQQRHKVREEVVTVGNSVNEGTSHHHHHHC
Sequence of FNIII1-7 (P02751 other isoform, or with tags, fused parts or gaps limits assumed): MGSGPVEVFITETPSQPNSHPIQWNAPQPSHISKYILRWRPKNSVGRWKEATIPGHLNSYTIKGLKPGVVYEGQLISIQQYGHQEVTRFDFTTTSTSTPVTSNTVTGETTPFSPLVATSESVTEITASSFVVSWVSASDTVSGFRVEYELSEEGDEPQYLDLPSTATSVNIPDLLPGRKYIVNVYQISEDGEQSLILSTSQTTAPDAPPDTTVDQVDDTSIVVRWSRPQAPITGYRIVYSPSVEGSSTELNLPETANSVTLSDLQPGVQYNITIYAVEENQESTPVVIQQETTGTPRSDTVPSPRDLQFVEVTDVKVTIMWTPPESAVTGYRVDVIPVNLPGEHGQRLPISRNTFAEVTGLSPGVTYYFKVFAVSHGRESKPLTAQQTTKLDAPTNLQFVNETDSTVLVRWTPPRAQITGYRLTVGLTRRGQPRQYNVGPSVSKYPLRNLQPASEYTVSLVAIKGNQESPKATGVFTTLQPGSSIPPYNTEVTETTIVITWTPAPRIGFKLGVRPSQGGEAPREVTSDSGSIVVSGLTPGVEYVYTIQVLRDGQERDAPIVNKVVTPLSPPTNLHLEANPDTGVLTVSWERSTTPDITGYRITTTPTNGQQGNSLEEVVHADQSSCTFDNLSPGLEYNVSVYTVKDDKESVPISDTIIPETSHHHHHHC
Sequence of FNIII12-14 (P02751 other isoform, or with tags, fused parts or gaps limits assumed): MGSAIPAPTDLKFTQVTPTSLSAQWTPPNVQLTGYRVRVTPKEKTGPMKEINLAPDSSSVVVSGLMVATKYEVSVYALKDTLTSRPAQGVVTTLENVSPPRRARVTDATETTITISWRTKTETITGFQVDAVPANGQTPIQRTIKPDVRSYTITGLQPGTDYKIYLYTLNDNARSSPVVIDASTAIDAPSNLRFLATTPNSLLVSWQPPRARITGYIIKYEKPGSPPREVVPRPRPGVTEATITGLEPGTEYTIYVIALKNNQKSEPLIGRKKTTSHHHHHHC
Sequence of FNIII12-V15 (HV), composite heparinII-binding and variably-spliced IIICS domains of fibronectin (P02751 other isoform, or with tags, fused parts or gaps limits assumed): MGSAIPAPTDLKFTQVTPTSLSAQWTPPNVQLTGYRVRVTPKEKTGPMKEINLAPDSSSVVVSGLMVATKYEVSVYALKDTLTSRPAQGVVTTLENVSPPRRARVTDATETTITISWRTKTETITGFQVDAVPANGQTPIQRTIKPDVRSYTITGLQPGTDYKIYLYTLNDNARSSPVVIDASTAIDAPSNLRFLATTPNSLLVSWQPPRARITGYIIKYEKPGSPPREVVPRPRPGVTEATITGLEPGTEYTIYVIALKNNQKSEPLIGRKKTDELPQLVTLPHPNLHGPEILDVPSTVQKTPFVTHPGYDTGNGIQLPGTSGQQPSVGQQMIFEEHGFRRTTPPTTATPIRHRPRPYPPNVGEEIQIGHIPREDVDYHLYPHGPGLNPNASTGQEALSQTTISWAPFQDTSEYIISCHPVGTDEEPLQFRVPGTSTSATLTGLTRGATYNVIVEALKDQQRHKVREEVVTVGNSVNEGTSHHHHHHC
Sequence of FNIII12-13 (P02751 other isoform, or with tags, fused parts or gaps limits assumed): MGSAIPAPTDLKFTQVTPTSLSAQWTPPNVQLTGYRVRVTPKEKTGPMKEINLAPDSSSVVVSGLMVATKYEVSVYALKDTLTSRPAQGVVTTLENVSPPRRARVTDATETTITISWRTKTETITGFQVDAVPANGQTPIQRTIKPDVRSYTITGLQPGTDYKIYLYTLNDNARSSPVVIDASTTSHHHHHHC

- Kd [1]: 49 nM
- Kd [2]: 53 nM
- Kd [3]: 49 nM
- Kd [4]: 53 nM
Substance: intact human plasma fibronectin (FN) (from UniProt P02751 32-2477)

- Kd [5]: 75 nM
- Kd [6]: 100 nM
- Kd [7]: 17 nM
- Kd [8]: 18 nM
Substance: FNIII1-7 (from UniProt P02751 610-1266)

- Kd [5]: 350 nM
- Kd [9]: 100 nM
- Kd [10]: 100 nM
- Kd [11]: 100 nM
- Kd [12]: 74 nM
Substance: IIICS, variably-spliced domain of fibronectin (from UniProt P02751 2083-2202)

- Kd [5]: 21 nM
- Kd [6]: 17 nM
- Kd [7]: 97 nM
- Kd [13]: 17 nM
- Kd [14]: 2.5 nM
- Kd [15]: 0.6 nM
- Kd [8]: 25 nM
Substance: FNIII12-V15 (HV), composite heparinII-binding and variably-spliced IIICS domains of fibronectin (from UniProt P02751 1812-2288)

- Kd [5]: 35 nM
- Kd [12]: 7.6 nM
- Kd [16]: 55 nM
- Kd [17]: 7.6 nM
Substance: FNIII12-14 (from UniProt P02751 1812-2082)

- Kd [5]: 6.8 nM
- Kd [12]: 16 nM
- Kd [16]: 6.8 nM
- Kd [17]: 16 nM
Substance: FNIII12-15 (H), heparinII-binding domain of fibronectin (from UniProt P02751 1631-1987)

- Kd [5]: 37 nM
- Kd [18]: 9.1 nM
Substance: FNIII1-2 (from UniProt P02751 610-812)

- Kd [5]: 32 nM
- Kd [18]: 370 nM
- Kd [12]: 6.2 nM
Substance: FNIII1 (from UniProt P02751 610-702)

- Kd [5]: 75 nM
Substance: FNIII12-13 (from UniProt P02751 1812-1992)
